# Test results reported in patent CN115057931A.
# Biological target: human LAG-3, full length, on transfected cells (human) (UniProt P18627)
# Assay: cell-based or functional assay
# Sequence of UniProt P18627 (P18627 23-525 limits assumed): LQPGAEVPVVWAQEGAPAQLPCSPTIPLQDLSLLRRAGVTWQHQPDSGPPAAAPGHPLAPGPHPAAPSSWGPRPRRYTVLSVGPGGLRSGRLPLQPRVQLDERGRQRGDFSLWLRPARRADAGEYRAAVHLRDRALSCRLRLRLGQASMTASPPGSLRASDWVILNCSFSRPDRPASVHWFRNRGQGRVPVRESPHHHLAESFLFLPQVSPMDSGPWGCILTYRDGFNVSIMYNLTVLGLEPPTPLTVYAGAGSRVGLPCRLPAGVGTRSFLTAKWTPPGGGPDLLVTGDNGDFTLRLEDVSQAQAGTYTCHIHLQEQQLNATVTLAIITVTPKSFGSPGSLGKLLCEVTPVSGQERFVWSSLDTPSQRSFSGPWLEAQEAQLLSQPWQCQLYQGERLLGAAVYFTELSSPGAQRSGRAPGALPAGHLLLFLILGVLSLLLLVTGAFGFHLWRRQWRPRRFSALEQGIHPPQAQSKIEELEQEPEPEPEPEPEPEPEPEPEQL
binder,measurement,value
"BMK7 (antibody, from another filing, V domains shown) VH: QVQLVESGGGVVQPGRSLRLSCVASGFTFSSYGMHWVRQAPGKGLEWVAIIWYDGSNKYYADSVKGRFTISRDNSKNTQYLQMNSLRAEDTAVYYCASVATSGDFDYYGMDVWGQGTTVTVSS VL: EIVLTQSPATLSLSPGERTTLSCRASQRISTYLAWYQQKPGQAPRLLIYDASKRATGIPARFSGSGSGTGFTLTISSLEPEDFAVYYCQQRSNWPLTFGGGTKVEIK","EC50(nM), IL-2 luciferase reporter in Jurkat cells expressing human LAG-3 with Raji cells and SEE",2.65 nM
